Assay results published in article PMC6050537, “Inhibition of low-density lipoprotein receptor degradation with a cyclic peptide that disrupts the homodimerization of IDOL E3 ubiquitin ligase† †Electronic supplementary information (ESI) available. See DOI: 10.1039/c8sc01186a” (Chemical Science, 2018).

Experiments:
Full length IDOL (1–445) [1] = biological target: T1, Full length IDOL (1–445) (UniProt Q8WY64 1-445, NT-647-NHS dye (only the labelled copy in the MST assays)); experiment: MST; Monolith NT.115; 6× His IDOL labelled with NT-647-NHS dye at 50 nM, peptides titrated; 10 mM HEPES, 300 mM NaCl, 1 mM TCEP, 0.05% TWEEN-20, pH 8.0, 5% DMSO; details: both partners purified
T1 construct: IDOL (inducible degrader of LDLR, MYLIP), E3 ubiquitin ligase, residues 1-445; The His tag is TEV cleavable, but SPR captures the protein by it and the MST methods name 6× His IDOL; In the homodimerization MST, unlabelled IDOL was titrated into dye-labelled IDOL; also called inducible degrader of LDLR; 6× His IDOL; not shown: His6, N-terminal, kept

Full length IDOL (1–445) [2] = biological target: T1, Full length IDOL (1–445); experiment: cell-based or functional assay

Kd (Full length IDOL (1–445) [1]): 4.6 µM | EC50 of Tat-RINGPep2 (0–35 μM) on LDLR protein levels in HepG2 cells; blocks IDOL homodimerization (Full length IDOL (1–445) [2]): 15 to 20 µM
B1: RINGPep2 (cyclo-CF-Cha-LYT) (peptide)
chain: CFXLYT
HELM: PEPTIDE1{C.F.[Cha].L.Y.T}$PEPTIDE1,PEPTIDE1,1:R1-6:R2$$$V2.0
SMILES: CC(C)C[C@@H]1NC(=O)[C@H](CC2CCCCC2)NC(=O)[C@H](Cc2ccccc2)NC(=O)[C@H](CS)NC(=O)[C@H]([C@@H](C)O)NC(=O)[C@H](Cc2ccc(O)cc2)NC1=O
